# Measurements published in article PMC10776578, “Epstein-Barr virus-driven B cell lymphoma mediated by a direct LMP1-TRAF6 complex” (Nature Communications, 2024).
# B1: K469A (protein, UniProt Q9Y4K3 1-522, looked up, variant K469A)
# TNF receptor-associated …: MSLLNCENSCGSSQSESDCCVAMASSCSAVTKDDSVGGTASTGNLSSSFMEEIQGYDVEFDPPLESKYECPICLMALREAVQTPCGHRFCKACIIKSIRDAGHKCPVDNEILLENQLFPDNFAKREILSLMVKCPNEGCLHKMELRHLEDHQAHCEFALMDCPQCQRPFQKFHINIHILKDCPRRQVSCDNCAASMAFEDKEIHDQNCPLANVICEYCNTILIREQMPNHYDLDCPTAPIPCTFSTFGCHEKMQRNHLARHLQENTQSHMRMLAQAVHSLSVIPDSGYISEVRNFQETIHQLEGRLVRQDHQIRELTAKMETQSMYVSELKRTIRTLEDKVAEIEAQQCNGIYIWKIGNFGMHLKCQEEEKPVVIHSPGFYTGKPGYKLCMRLHLQLPTAQRCANYISLFVHTMQGEYDSHLPWPFQGTIRLTILDQSEAPVRQNHEEIMDAKPELLAFQRPTIPRNPAGFGYVTFMHLEALRQRTFIKDDTLLVRCEVSTRFDMGSLRREGFQPRSTDAGV
# Columns and labels:
# [1] = system: LMP1-CL 40 B cell lymphoma; assay: CRISPR/Cas9 knockout, cell survival (selection score) of lymphoma LMP1-CL 40; format: cell-based, mouse; parameters: key: Venus-neg d7 / mCherry+ d2, normalized to nontargeting gRNA (=1); conditions: for cell survival (selection score), Figure 6 b: CRISPR guides
# Source text: (§1) The mouse LMP1 B cell tumors LMP1-CL 37 and 40 were derived from two B cell tumors arising in Rag2^KO;cγ^KO mice inoculated with primary tumor cells from Rag2^KO;cγ^KO mice reconstituted with fetal liver hematopoietic stem cells and progenitor cells from CD19-cre;R26-LMP1^STOPfl;CD3ε^KO animals as described. In these cells, a Venus expression cassette was targeted into the Rosa26 locus by CRISPR/CAS9 as described. Venus-LMP1 B cells were electroporated (Nucleofector, Lonza, human B cell program) with 1 µg of each of two pX330-mcherry-CAS9 vectors[83] encoding varying guide RNAs. In each approach, the first guide RNA (gRNA) targeted Venus while the second gRNA targeted either a nontargeting control sequence not present in the genome, or the gene of interest (GOI). The following gRNA sequences were used: nontargeting (NT) […], ICAM1 […], LMP1 #1 […], LMP1 #2 CCAAAACAGTAGCGCCAAG, LMP1 #3 AATCATCGGTAGCTTGTTG, TRAF6 #1 […], TRAF6 #2 […], TRAF6 #3 […]. The electroporation efficiency, measured as the frequency of mCherry-positive cells on day two after electroporation, was determined by flow cytometry with a Becton Dickinson LSRFortessa flow cytometer. On day seven, the loss of Venus was measured by flow cytometry as a surrogate marker for the number of surviving targeted cells. In the case of a lethal coexpressed GOI gRNA, Venus-negative cells will not survive, and their relative numbers are reduced. The given selection score is defined as the frequency of Venus-negative cells on day seven over the frequency of mCherry-positive cells on day two, normalized to the ratio observed with the nontargeting control gRNA. FACS data were analyzed by FlowJo software. The gating strategy is exemplified in Supplementary Fig. 5b. Animal housing and experiments to generate LMP1 lymphomas were approved by the Landesamt für Gesundheit und Soziales Berlin (G0049/15, G0374/13, and G0135/11). Mice were kept in groups in individually ventilated cages with a 12 h dark-light cycle at 22 ± 2 °C and 55 ± 5% relative humidity. They had access to food and water ad libitum, as well as to nest building material and shelter.
# [2] = system: LMP1-CL 37 B cell lymphoma; assay: CRISPR/Cas9 knockout, cell survival (selection score) of lymphoma LMP1-CL 37; format: cell-based, mouse; parameters: key: Venus-neg d7 / mCherry+ d2, normalized to nontargeting gRNA (=1); conditions: for cell survival (selection score), Figure 6 b: CRISPR guides
# Source text: as §1
# GST-CD40_216-277 = assay: AlphaScreen PPI, TRAF6 mutants binding to CD40; parameters: species or system human; TRAF6 binding to CD40 (AlphaScreen), mean: unit not given here
# Protocol: (§2) Fig. 2 LMP1 binds to the receptor-interacting surface of TRAF6. a Mutations within the receptor-interacting surface of TRAF6 affect binding to LMP1. The TRAF6 mutants R392A, K469A, F471A, and Y473A were tested LMP1 in AlphaScreen PPI experiments with GST-LMP1_181-386. Data are mean values ± SD of three independent experiments. Statistics: one-way ANOVA. b TRAF6 R392A differentiates between CD40 and LMP1/RANK. AlphaScreen PPI experiments with GST-CD40_216-277. Data are mean values ± SD of three independent experiments. […] AlphaScreen PPI experiments with GST-RANK314-355. Data are mean values ± SD of four independent experiments. Statistics: one-way ANOVA. d TRAF6 mutants that fail to interact with LMP1 in PPI assays are also unable to bind cellular LMP1. HEK293 cells were co-transfected with HA-LMP1 and the indicated Flag-TRAF6 mutants. Flag-TRAF6 was immunoprecipitated (IP) via its Flag-tag and coprecipitated HA-LMP1 was detected on immunoblots by an α-HA antibody. Uncropped blots in Supplementary Fig. 6b. For statistical analysis LMP1 signals were digitalized and quantified (graph). Data are mean values ± SD of three independent experiments. […] TRAF6 recruitment is dependent on amino acids 371 − 386 of LMP1 (small panel). Confocal microscopy images show representative cells of three independent experiments. Quantitative data are mean values ± SD of ten randomly selected cells per transfection of one representative experiment (graph). Scale bars: 10 µm. Statistics: one-way ANOVA. p-values: *p ≤ 0.05, **p ≤ 0.01, ***p ≤ 0.001, ****p ≤ 0.0001. Source data and exact p-values in the Source Data file.
# (§3) AlphaScreen experiments were performed in 96- or 384-well plates (Perkin Elmer, OptiPlate). In both assay formats, His-TRAF and GST-LMP1, GST-CD40, or GST-RANK proteins were incubated together in 40 µL of PBS (protein concentrations were calculated to the final reaction volume of 60 µL) supplemented with 0.5% BSA (Sigma, #A7030) and 0.1% Tween-20 (AppliChem, #A4974), for 1 h at room temperature (RT). If not indicated otherwise, standard protein concentrations were 300 nM for His-TRAF proteins and 100 nM for GST-LMP1 proteins. Ni-NTA-acceptor (Perkin Elmer, #6760619 C) and GST-acceptor (Perkin Elmer, # 6765300) beads were added each to a final concentration of 1–4 µg per mL in a final reaction volume of 60 µL and incubated for 1 h at RT in the dark. AlphaScreen PPI signals were measured in a CLARIOstar reader (BMG Labtech GmbH).
# HA-LMP1 [3] = assay: Coimmunoprecipitation of HA-LMP1 with Flag-TRAF6 mutants in HEK293 cells; format: cell-based, Epstein-Barr virus
# Protocol: Immunoblotting was essentially performed as described. Proteins were detected on nitrocellulose membranes (Bio-Rad, #1620115) using the following primary antibodies: α−6*His-tag (clone 4A4 or 2F12, source: antibody facility of the Helmholtz Center Munich, hybridoma supernatants were used at a 1:10 dilution)[75], α-TRAF6 (H-274, Santa Cruz Biotech., #sc-7221, used at 1:1000), α-HA-tag (12CA5, Sigma-Aldrich, #11583816001, used at 0.4 µg per mL), α-IκBα (C-21, Santa Cruz Biotech., #sc-371, used at 1:500) and α-Tubulin (B-5-1-2, Santa Cruz Biotech., #sc-23948, used at 1:500). Horseradish peroxidase-coupled antibodies were used as secondary antibodies (Cell Signalling Technology, #7074 or #7076, respectively, both used at 1:5000). ECL signals were captured on X-ray films (Agfa Healthcare) and quantified by densitometry using the ImageJ software. Uncropped scans of immunoblots indicating molecular weights are provided in Supplementary Fig. 6.
# HEK293 cells were transfected with 1 µg of pRK5-Flag TRAF6 plasmids, 1 µg of pCMV-HA-LMP1 and 6 µg of pRK5 per 10 cm cell culture dish using PolyFect Transfection Reagent (Qiagen, #301107) in RPMI without supplements. Cells were incubated with the plasmid transfection mix for 4 h before the medium was changed to RPMI full medium. After 24 h, the cells were lysed in NP40-lysis buffer (50 mM HEPES pH 7.5, 150 mM NaCl, 5 mM EDTA, 0.5 mM sodium orthovanadate, 0.5 mM PMSF, 0.5 mM sodium molybdate, and cOmplete protease inhibitor cocktail). Lysates were cleared by centrifugation at 15000 x g for 10 min at 4 °C, and the protein concentration was adjusted to 1 mg per mL. For immunoprecipitation 4 mL of lysate was incubated with the α-Flag antibody 6F7 (Sigma-Aldrich, #F3165; covalently coupled to protein-G-Sepharose) for 1 h at 4 °C. The beads were pelleted at 15000 x g for 30 seconds at 4 °C, washed twice with NP40-lysis buffer, and analyzed by immunoblotting.
# GST-LMP1_181-386 = assay: AlphaScreen PPI, TRAF6 mutants binding to LMP1; parameters: species or system Epstein-Barr virus; TRAF6 binding to LMP1 (AlphaScreen), mean: unit not given here
# Protocol: as §2, §3
# HA-LMP1 [4] = assay: Confocal immunofluorescence colocalization of Flag-TRAF6 with HA-LMP1 in HeLa cells; format: cell-based, Epstein-Barr virus
# Protocol: HeLa cells were seeded onto cover glasses (Thermo Scientific, Menzel) in 24-well plates one day before transfection. Cells were transfected at 50–60% confluency with 50 ng of pCMV-HA-LMP1 plasmids and 100 ng of pRK5-Flag-TRAF6 plasmids, adjusted to a total of 500 ng DNA per sample with pRK5 empty vector, using Lipofectamine 2000 (Thermo Fisher Scientific) according to the manufacturer’s instructions. At 24 h posttransfection, cells were washed once with PBS and fixed with 4% paraformaldehyde (Sigma-Aldrich) for 20 min at RT, followed by permeabilization with 0.3% (v/v) Triton X-100 and blocking with 5% (v/v) FBS in PBS for 1 h at RT. For immunostaining, the cells were incubated overnight with the primary antibodies α-HA (1:1000, clone 16B12, BioLegend) and α-DYKDDDDK (1:1000, clone L5, BioLegend) at 4 °C. The secondary antibodies goat α-mouse Alexa 488 (1:500, cross-adsorbed, Invitrogen, #A-11029) and goat α-rat Alexa 555 (1:500, cross-adsorbed, Invitrogen, #A-21434) were added for 1.5 h at RT. Microscope slides were sealed with cover glasses using Mowiol mounting medium (Sigma-Aldrich). Nuclei were stained with Hoechst 33258 (Sigma-Aldrich). All samples were imaged using a Leica TCS SP5 confocal microscope with 405 nm, 488 nm, 543 nm or 633 nm laser lines, scanning each channel separately under image capture conditions that eliminated channel overlap. For each single experiment, 10 transfected cells positive for both constructs were randomly captured as single-cell images for quantification. The resulting images were then analyzed using the Leica TCS SP5 colocalization analyses application (LAS AF Version 2.7.3.9723). Analysis was performed with default parameters.
molecule,measurement,setting,value
GTTTGAGCTGAGCGAGATCG (expressed or natural sequence) [ICAM1 gRNA],"cell survival (selection score), Figure 6 b",[1]; replicate 1,1.006
same,"cell survival (selection score), Figure 6 b",[1]; replicate 2,1.221
same,"cell survival (selection score), Figure 6 b",[1]; replicate 3,0.6632
same,"cell survival (selection score), Figure 6 b",[1]; replicate 4,1.293
same,"cell survival (selection score), Figure 6 b",[1]; replicate 5,1.126
same,"cell survival (selection score), mean","[1]; mean (NT mean = 1), n = 9 LMP1, 10 TRAF6, 5 ICAM1",1.062
same,"cell survival (selection score), Figure 6 b",[2]; replicate 1,1.189
same,"cell survival (selection score), Figure 6 b",[2]; replicate 2,1.169
same,"cell survival (selection score), Figure 6 b",[2]; replicate 3,1.095
same,"cell survival (selection score), Figure 6 b",[2]; replicate 4,0.9472
same,"cell survival (selection score), Figure 6 b",[2]; replicate 5,1.162
same,"cell survival (selection score), Figure 6 b",[2]; replicate 6,1.151
same,"cell survival (selection score), mean","[2]; mean (NT mean = 1), n = 9 LMP1, 10 TRAF6, 6 ICAM1",1.119
B1,effect of TRAF6 mutation on binding to CD40 (in words),GST-CD40_216-277; AlphaScreen PPI,did not affect the TRAF6 interaction with LMP1 or CD40
same,"TRAF6 binding to CD40 (AlphaScreen), mean","GST-CD40_216-277; Figure 2b, mean of n = 3",89.86
same,TRAF6 binding to CD40 (AlphaScreen),"GST-CD40_216-277; Figure 2b, relative to mean wt 100, replicate 1",52.8
same,TRAF6 binding to CD40 (AlphaScreen),"GST-CD40_216-277; Figure 2b, replicate 2",105.6
same,TRAF6 binding to CD40 (AlphaScreen),"GST-CD40_216-277; Figure 2b, replicate 3",111.2
same,"coprecipitated HA-LMP1 signal (densitometry), mean","HA-LMP1 [3]; HEK293, mean of n = 3",17563327
same,interaction of TRAF6 mutants with LMP1 in HEK293 cells (in words),HA-LMP1 [3]; coimmunoprecipitation,no negative effect on the interaction
same,effect of TRAF6 mutation on binding to LMP1 (in words),GST-LMP1_181-386; AlphaScreen PPI,did not affect the TRAF6 interaction with LMP1 or CD40
same,"TRAF6 binding to LMP1 (AlphaScreen), mean","GST-LMP1_181-386; Figure 2a, mean of n = 3",102.4
same,TRAF6 binding to LMP1 (AlphaScreen),"GST-LMP1_181-386; Figure 2a, relative to mean wt 100, replicate 1",73.0
same,TRAF6 binding to LMP1 (AlphaScreen),"GST-LMP1_181-386; Figure 2a, replicate 2",116.6
same,TRAF6 binding to LMP1 (AlphaScreen),"GST-LMP1_181-386; Figure 2a, replicate 3",117.5
same,colocalization with HA-LMP1 (in words),HA-LMP1 [4]; confocal microscopy,colocalized to a high extent with HA-LMP1 clusters
same,"colocalization of TRAF6 with LMP1, mean",HA-LMP1 [4]; mean of ten cells,98.27
